Kd data for 25 sequences are collected here from patent publication US20030054360.

Holding throughout (experiment): filter
For one series, the target named is T1, Interleukin-7 (UniProt P13232).
T1 sequence: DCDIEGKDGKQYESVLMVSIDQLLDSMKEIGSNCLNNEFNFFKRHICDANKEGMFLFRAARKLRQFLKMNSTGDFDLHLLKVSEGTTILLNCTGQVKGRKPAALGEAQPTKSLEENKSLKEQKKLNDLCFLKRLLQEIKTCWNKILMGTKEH
The following applies: 5-BrdU replaces T; apparent photocrosslink KD; plateau 50%.

Series [1] has as its target T2, human neutrophil elastase (hNE) (Homo sapiens) (UniProt P08246).
T2 sequence: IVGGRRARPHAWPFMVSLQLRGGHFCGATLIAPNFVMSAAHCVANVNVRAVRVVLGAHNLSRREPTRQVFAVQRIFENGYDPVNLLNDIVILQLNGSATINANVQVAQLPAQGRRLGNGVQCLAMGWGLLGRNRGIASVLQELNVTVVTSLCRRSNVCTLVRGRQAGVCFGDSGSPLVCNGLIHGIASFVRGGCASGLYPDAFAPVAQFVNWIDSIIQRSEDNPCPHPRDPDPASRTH
The following applies: 5-BrdU replaces T.

Another series concerns the target Thrombopoietin (Tpo) (UniProt P40225). The following applies: 5-BrdU replaces T; apparent photocrosslink KD; plateau 50%.
Series [2] addresses alpha-thrombin (Homo sapiens) (UniProt P00734+P00734). The conditions noted are these: 5-BrdU replaces T, apparent photocrosslink KD.
Another series has as its target CTLA-4 Fc (UniProt P16410). The following applies: 5-BrdU replaces T; apparent photocrosslink KD; plateau 7%.
The next series has as its target Serum Amyloid P (UniProt P02743). The conditions noted are these: 5-BrdU replaces T; apparent photocrosslink KD; plateau 55%.
The next series deals with IGFBP-3 (UniProt P17936). The conditions noted are these: 5-BrdU replaces T; apparent photocrosslink KD; plateau 52%.
A further series addresses Plasmin (UniProt P00747+P00747). The following applies: 5-BrdU replaces T; apparent photocrosslink KD; plateau 50%.
In series [3] the target is Transforming Growth Factor beta1 (TGF-beta1) (UniProt P01137). The following applies: 5-BrdU replaces T, apparent photocrosslink KD.
The next series deals with Factor H (UniProt P08603). The following applies: 5-BrdU replaces T; apparent photocrosslink KD; plateau 65%; abstract prints Factor II.
The target in series [4] is T3, L-Selectin (Homo sapiens) (UniProt P14151).
T3 sequence: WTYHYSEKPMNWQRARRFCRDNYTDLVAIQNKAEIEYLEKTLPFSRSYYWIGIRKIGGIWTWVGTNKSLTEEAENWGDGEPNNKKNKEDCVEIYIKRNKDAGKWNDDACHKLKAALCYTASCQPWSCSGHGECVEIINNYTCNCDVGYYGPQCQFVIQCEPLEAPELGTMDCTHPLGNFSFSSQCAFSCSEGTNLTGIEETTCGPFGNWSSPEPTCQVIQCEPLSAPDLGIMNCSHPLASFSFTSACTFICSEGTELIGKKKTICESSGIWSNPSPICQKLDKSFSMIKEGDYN
The conditions noted are these: 5-BrdU replaces T; apparent photocrosslink KD; plateau 25%.

Series [5] addresses Hepatocyte Growth Factor (HGF) (UniProt P14210+P14210). The following applies: 5-BrdU replaces T; apparent photocrosslink KD; plateau 73%.
In another series the target is T4, Kininogen (UniProt P01042).
T4 sequence: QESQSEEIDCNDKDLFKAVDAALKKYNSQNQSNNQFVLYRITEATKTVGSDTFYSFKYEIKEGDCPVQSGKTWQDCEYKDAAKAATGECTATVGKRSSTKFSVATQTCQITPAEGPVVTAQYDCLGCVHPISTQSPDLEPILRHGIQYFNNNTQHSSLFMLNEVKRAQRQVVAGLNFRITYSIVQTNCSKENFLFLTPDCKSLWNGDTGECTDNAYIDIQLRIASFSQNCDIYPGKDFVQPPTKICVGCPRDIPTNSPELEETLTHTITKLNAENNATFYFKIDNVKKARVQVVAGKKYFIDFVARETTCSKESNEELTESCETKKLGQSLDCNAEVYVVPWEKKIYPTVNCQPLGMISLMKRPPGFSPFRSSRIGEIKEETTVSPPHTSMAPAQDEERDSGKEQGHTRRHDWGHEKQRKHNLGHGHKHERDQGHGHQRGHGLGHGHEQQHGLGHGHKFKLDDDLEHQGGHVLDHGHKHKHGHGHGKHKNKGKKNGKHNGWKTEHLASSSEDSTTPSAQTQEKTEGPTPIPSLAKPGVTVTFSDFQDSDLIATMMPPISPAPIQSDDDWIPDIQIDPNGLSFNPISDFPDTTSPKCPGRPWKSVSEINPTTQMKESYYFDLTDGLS
The conditions noted are these: 5-BrdU replaces T; apparent photocrosslink KD; plateau 64%.

Another series deals with T5, Coagulation Factor XII (UniProt P00748).
T5 sequence: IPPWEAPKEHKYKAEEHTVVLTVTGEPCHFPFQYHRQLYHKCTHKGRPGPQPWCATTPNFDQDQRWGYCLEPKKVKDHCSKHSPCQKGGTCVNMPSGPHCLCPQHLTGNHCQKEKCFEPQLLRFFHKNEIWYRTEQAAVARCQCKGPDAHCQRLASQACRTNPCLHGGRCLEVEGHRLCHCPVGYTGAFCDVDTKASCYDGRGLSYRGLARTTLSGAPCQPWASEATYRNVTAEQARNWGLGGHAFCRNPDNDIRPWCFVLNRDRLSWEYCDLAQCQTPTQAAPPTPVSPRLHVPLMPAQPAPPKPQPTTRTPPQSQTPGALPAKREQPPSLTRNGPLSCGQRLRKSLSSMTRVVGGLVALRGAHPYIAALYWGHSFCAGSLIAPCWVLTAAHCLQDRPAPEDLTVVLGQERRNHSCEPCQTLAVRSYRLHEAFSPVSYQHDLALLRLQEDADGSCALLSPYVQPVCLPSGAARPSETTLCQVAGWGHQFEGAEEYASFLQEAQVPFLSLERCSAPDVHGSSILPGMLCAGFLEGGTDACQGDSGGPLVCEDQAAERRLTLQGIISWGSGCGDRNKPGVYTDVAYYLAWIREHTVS
The conditions noted are these: 5-BrdU replaces T; apparent photocrosslink KD; plateau 45%.

The target of another series is T6, Endostatin (UniProt P39060).
T6 sequence: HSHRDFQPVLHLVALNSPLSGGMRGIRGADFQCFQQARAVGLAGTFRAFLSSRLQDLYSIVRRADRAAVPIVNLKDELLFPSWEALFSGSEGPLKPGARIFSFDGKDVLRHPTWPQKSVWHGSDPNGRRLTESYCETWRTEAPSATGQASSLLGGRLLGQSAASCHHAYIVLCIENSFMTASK
The conditions noted are these: 5-BrdU replaces T; apparent photocrosslink KD; plateau 75%.

The test system of a further series is Collagen. The following applies: 5-BrdU replaces T; apparent photocrosslink KD; plateau 25%.
The next series has as its target Coagulation Factor IX (UniProt P00740). The following applies: 5-BrdU replaces T; apparent photocrosslink KD; plateau 75%.

Sequence of Transforming Growth Factor beta1 (TGF-beta1) (P01137 279-390): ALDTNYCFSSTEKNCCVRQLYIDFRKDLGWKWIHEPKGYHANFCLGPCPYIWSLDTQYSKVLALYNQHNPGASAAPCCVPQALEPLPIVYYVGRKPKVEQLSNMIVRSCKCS
Sequence of IGFBP-3 (P17936 28-291): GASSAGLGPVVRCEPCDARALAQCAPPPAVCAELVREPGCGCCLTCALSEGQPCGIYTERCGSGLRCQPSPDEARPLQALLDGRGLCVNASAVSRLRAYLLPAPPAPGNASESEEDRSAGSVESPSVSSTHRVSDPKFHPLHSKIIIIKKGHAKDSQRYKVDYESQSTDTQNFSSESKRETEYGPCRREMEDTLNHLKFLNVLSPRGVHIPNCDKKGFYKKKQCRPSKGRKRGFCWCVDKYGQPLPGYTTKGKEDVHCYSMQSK
Sequence of CTLA-4 Fc (P16410 36-161): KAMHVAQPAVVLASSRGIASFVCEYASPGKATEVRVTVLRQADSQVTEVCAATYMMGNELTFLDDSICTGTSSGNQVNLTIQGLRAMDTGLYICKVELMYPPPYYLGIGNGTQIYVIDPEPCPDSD
Sequence of Serum Amyloid P (P02743 20-223): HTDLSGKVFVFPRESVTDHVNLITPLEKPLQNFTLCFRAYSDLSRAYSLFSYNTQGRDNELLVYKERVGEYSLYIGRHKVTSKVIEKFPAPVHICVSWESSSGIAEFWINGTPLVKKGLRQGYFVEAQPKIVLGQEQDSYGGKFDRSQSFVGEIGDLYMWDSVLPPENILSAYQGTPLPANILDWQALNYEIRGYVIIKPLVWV
Sequence of Hepatocyte Growth Factor (HGF) (P14210 32-494, chain 1 of 2): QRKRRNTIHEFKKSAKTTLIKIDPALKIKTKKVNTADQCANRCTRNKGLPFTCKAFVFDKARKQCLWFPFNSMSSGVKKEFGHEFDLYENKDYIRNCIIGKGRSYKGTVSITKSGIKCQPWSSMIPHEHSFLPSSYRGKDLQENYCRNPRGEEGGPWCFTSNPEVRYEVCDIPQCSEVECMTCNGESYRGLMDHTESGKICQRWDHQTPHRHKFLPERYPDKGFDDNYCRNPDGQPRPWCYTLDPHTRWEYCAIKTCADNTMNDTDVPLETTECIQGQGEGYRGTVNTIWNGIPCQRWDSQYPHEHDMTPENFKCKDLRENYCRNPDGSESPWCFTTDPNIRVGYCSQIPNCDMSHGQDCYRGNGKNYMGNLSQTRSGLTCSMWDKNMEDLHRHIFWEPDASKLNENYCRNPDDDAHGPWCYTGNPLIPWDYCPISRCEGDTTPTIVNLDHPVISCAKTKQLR
Sequence of Hepatocyte Growth Factor (HGF) (P14210 495-728, chain 2 of 2): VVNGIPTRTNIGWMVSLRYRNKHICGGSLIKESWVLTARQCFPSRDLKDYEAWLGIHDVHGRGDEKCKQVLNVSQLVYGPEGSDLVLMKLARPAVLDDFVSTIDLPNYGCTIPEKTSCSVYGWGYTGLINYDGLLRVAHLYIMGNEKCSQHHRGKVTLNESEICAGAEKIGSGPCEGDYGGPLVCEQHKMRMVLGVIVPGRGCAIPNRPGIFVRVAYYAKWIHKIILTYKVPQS
Sequence of Plasmin (P00747 97-580, chain 1 of 2): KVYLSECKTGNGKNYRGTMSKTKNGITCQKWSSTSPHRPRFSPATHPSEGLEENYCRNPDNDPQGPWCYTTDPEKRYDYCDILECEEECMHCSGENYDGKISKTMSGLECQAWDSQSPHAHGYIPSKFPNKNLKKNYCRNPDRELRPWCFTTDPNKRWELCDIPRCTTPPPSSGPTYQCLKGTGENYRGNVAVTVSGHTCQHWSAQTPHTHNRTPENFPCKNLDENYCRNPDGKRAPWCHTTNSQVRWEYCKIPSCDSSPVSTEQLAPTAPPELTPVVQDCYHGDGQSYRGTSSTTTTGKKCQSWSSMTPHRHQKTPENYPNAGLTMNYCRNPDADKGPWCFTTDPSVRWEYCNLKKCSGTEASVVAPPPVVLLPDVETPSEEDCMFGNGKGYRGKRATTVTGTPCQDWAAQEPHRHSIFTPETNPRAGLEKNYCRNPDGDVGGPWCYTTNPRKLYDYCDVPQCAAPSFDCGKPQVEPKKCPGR
Sequence of Plasmin (P00747 581-810, chain 2 of 2): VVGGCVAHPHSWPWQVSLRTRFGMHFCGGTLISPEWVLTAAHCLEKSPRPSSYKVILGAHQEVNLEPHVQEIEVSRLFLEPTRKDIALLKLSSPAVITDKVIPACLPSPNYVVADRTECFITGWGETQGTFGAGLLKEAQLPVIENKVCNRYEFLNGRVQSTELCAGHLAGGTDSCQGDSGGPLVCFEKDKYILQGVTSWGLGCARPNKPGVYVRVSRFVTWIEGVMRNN
Sequence of Factor H (P08603 19-1231): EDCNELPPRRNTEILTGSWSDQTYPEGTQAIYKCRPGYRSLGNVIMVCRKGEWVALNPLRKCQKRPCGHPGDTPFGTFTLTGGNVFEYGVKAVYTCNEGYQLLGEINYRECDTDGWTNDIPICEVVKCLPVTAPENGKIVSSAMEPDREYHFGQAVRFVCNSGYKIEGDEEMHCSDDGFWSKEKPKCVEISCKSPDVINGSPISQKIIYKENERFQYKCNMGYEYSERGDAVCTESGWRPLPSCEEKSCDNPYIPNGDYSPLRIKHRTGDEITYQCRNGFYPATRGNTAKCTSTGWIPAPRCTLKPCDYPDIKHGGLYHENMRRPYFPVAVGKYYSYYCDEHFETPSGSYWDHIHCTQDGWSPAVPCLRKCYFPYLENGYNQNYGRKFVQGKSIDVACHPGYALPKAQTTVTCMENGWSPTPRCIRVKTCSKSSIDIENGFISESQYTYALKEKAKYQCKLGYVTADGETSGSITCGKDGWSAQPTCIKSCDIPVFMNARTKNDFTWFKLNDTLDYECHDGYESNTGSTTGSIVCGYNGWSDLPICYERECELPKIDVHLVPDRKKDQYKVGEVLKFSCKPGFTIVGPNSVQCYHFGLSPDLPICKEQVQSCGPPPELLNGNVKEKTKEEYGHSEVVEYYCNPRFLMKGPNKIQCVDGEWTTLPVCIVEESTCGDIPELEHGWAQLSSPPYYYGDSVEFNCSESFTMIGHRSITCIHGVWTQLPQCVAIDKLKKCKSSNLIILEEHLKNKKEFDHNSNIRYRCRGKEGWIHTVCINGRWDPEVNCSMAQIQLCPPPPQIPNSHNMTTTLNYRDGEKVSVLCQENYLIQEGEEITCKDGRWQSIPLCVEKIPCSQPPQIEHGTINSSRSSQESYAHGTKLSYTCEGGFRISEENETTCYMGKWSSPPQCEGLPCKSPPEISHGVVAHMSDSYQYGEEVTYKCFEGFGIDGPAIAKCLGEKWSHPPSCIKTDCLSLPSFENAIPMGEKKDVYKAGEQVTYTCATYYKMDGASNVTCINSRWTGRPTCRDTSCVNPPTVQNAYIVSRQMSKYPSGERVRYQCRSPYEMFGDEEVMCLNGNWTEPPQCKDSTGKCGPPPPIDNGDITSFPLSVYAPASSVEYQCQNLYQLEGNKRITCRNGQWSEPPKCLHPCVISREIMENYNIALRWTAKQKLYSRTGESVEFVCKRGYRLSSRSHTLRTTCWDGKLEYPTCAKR
Sequence of Thrombopoietin (Tpo) (P40225 22-353): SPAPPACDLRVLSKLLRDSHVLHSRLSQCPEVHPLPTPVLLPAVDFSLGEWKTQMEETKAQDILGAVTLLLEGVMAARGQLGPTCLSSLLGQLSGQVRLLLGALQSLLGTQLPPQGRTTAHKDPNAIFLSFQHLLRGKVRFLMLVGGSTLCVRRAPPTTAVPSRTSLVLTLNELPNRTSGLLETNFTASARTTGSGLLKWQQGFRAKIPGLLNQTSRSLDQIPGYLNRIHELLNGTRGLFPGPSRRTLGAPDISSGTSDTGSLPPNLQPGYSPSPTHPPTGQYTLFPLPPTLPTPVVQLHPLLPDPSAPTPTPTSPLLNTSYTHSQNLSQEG

Take “ATATATATGGGAGGACGATGCGGGCTGAAAGGAAACGGACGATTGAGCTTCCCCTTACCTCTCCAGACGACGAGCGGGAAAAAAAA [IL-7 pool 042 clone 5]”: in the series with Interleukin-7, the Kd amounted to 11 nM.

In the case of “ATATATATGGGAGGACGATGCGGGCCAATCTGTCTTCTTTCCATCCTTATGATCAGACGACGAGCGGGAAAAAAAA [hNE pool 2 clone 73]”, in series [1] (apparent photocrosslink KD, plateau 32%, rate 0.28), the Kd was determined as 29 nM.

“ATATATATGGGAGGACGATGCGGGCACACCCAACCTTGCTTCTTCAATCTAATCTCCACTTTGCAGACGACGAGCGGGAAAAAAAA [Tpo pool 059 clone 34]”: in the series with Thrombopoietin (Tpo), the Kd was determined as 64 nM.

On to “ATATATATGGGAGGACGATGCGGGCAGGACGGACAGCAAGGGGTGAGCACGAGCAGACGACGAGCGGGAAAAAAAA [Thrombin pool 5 clone 75]”, for which the Kd in series [2] (plateau 62%) came to 110 nM.

As for “ATATATATGGGAGGACGATGCGGGACGCTAATACTTCTGGAGTGGAACGGTTTCAGACGACGAGCGGGAAAAAAAA [CTLA-4 Fc pool 101 clone 60]”, the Kd with CTLA-4 Fc is 8 nM.

Turning to “ATATATATGGGAGGACGATGCGGGCCGACTCTGAGGAAAAGGTTTTATGTATGGCTACCCCTGCAGACGACGAGCGGGAAAAAAAA [Serum Amyloid P pool 051 clone 50]”, the Kd with Serum Amyloid P was 0.54 nM.

For “ATATATATGGGAGGACGATGCGGGAGGAGCTGATGGGTGGTGAGGTTGGCCAGACGACGAGCGGGAAAAAAAA [Thrombin pool 5 clone 51]”, the Kd in series [2] (plateau 6%, rate 0.4) is 0.04 nM.

As for “ATATATATGGGAGGACGATGCGGGCACATCACTCTATCATTTGCTACGGTACCGGAGTGAGTCCAGACGACGAGCGGGAAAAAAAA [hNE pool 2 clone 18]”, the Kd in series [1] (apparent KD from photocrosslinking 308 nm, plateau 37%, rate 0.72 J-1 cm2) was found to be 21 nM.

“ATATATATGGGAGGACGATGCGGGCGGTTGGCGTGGTTGGAAATGTCCCGTCAGACGACGAGCGGGAAAAAAAA [Thrombin pool 5 clone 77]”: the Kd in series [2] (plateau 9%, rate 0.64, Table 7 sequence differs from listing (GGTTGCTGTGG vs ggttggcgtgg)) worked out at 0.05 nM.

Take “ATATATATGGGAGGACGATGCGGGCAAAGTGTTATTTCTTGATCTGTTTCACCCAGACGACGAGCGGGAAAAAAAA [IGFBP-3 pool 112 clone 65]”: the Kd with IGFBP-3 was 6 nM.

Take “ATATATATGGGAGGACGATGCGGCAACCCTGACACCACGTTGTTTCTCCTTTTGGGGTAACCGCAGACGACGAGCGGGAAAAAAAA [Plasmin pool 050 clone 25]”: the Kd in the series with Plasmin was found to be 78 nM.

On to “ATATATATGGGAGGACGATGCGGGCAGCAACCTACCTTACCTTCCCCTAGCCTACCTTATCCCCAGACGACGAGCGGGAAAAAAAA [TGF-beta1 pool 015 clone 82]”, for which, in series [3] (plateau 100%, rate 0.54), the Kd is 7.1 nM.

As to “ATATATATGGGAGGACGATGCGGCCTCATAAAGTTACATCGGCAATTCTTCTCCAGACGACGAGCGGGAAAAAAAA [Factor H pool 94 clone 12]”, the Kd with Factor H is 14 nM.

Turning to “ATATATATGGGAGGACGATGCGGCCGGTTCACGTGCACCATCCGTGTGCTAGACAGACGACGAGCGGGAAAAAAAA [L-Selectin pool 048 clone 21]”, the Kd in [4] amounted to 7 nM.

With “ATATATATGGGAGGACGATGCGGGACGACTAGCCTAGTGCCCTTACGATCACCCAGACGACGAGCGGGAAAAAAAA [HGF pool 107 clone 23]”, in series [5], the Kd was determined as 0.53 nM.

Take “ATATATATGGGAGGACGATGCGGGCACAATCAAGACCTCTCCAAACTTGAACTCTGTCTATCCCAGACGACGAGCGGGAAAAAAAA [TGF-beta1 pool 015 clone 87]”: the Kd in [3] (plateau 80%, rate 0.5) is 62 nM.

Take “ATATATATGGGAGGACGATGCGGCAACCCACCACTCTATCTTTCCCATAACTGCAGACGACGAGCGGGAAAAAAAA [hNE pool 2 clone 43]”: the Kd in series [1] (apparent photocrosslink KD, plateau 27%, rate 0.14) came out at 61 nM.

“ATATATATGGGAGGACGATGCGGGCACAACCTTACCACCCTAGCCTACCCCTAACCTCCTGTCCAGACGACGAGCGGGAAAAAAAA [TGF-beta1 pool 015 clone 74]”: in series [3] (plateau 79%, rate 0.34), the Kd turned out to be 4.9 nM.

“ATATATATGGGAGGACGATGCGGGACGCTAGTACCCTGGCTGGCTTGGTTGGGCAGACGACGAGCGGGAAAAAAAA [Kininogen pool 046 clone 31]”: the Kd with Kininogen is 7 nM.

Turning to “ATATATATGGGAGGACGATGCGGGCACCTTTCTTACATCTTGGCTTCATTCTTGCACCATTGGCAGACGACGAGCGGGAAAAAAAA [TGF-beta1 pool 015 clone 83]”, the Kd in series [3] (plateau 80%, rate 0.82) came to 4.3 nM.

On to “ATATATATGGGAGGACGATGCGGCTGCGTGACAGTTATACTGTTATTGGTCTTCAGACGACGAGCGGGAAAAAAAA [Factor XII pool 89 clone 51]”, for which the Kd in the series with Coagulation Factor XII came out at 53 nM.

Take “ATATATATGGGAGGACGATGCGGCACAATGAAGTCACTCTTGACGCTTGTATTCAGACGACGAGCGGGAAAAAAAA [Endostatin pool 92 clone 4]”: the Kd with Endostatin is 2.7 nM.

For the sequence “ATATATATGGGAGGACGATGCGGCTACTCCTCCTTAACCCGGGTCTTGTGGCCCAGACGACGAGCGGGAAAAAAAA [Collagen pool 100 clone 36]”, the Kd in the series with Collagen is 0.75 nM.

Consider “ATATATATGGGAGGACGATGCGGGCGTCTGGGATTTGGACTTCTTCGCTAGCTCAGACGACGAGCGGGAAAAAAAA [Factor IX pool 87 clone 50]”, for which, in the series with Coagulation Factor IX, the Kd was determined as 6.2 nM.

Turning to “ATATATATGGGAGGACGATGCGGGCAGTAGGTTGGGTAGGGTGGTCTGCTCAGACGACGAGCGGGAAAAAAAA [Thrombin pool 5 clone 4]”, the Kd in [2] (plateau 25%, rate 0.4) amounted to 0.03 nM.
